Experimental data: patent US20240400708A1
Substitutions are numbered along the chain they refer to. Numbers in names are those of the source.

B1: feline IgG1a S252N (antibody, part only; not given: variable domains, not shown: another chain or arm of the molecule)
constant: ASTTAPSVFPLAPSCGTTSGATVALACLVLGYFPEPVTVSWNSGALTSGVHTFPAVLQASGLYSLSSMVTVPSSRWLSDTFTCNVAHPPSNTKVDKTVRKTDHPPGPKPCDCPKCPPPEMLGGPSIFIFPPKPKDTLNISRTPEVTCLVVDLGPDDSDVQITWFVDNTQVYTAKTSPREEQFNSTYRVVSVLPILHQDWLKGKEFKCKVNSKSLPSPIERTISKAKGQPHEPQVYVLPPAQEELSRNKVSVTCLIKSFHPPDIAVEWEITGQPEPENNYRTTPPQLDSDGTYFVYSKLSVDRSHWQRGNTYTCSVSHEALHSHHTQKSLTQSPGK
B2: feline IgG1a S434H (antibody, part only; not given: variable domains and light chain, not shown: another chain or arm of the molecule; small tags and cut ends)
constant: B1 constant with N138S, S322H
B3: feline IgG1a S252P (antibody, part only; not given: Variable domains, not shown: another chain or arm of the molecule)
constant: B1 constant with N138P
B4: feline IgG1a S252Q (antibody, part only; not given: Variable domains, not shown: another chain or arm of the molecule)
constant: B1 constant with N138Q
B5: feline IgG1a S252T (antibody, part only; not given: Variable domains, not shown: another chain or arm of the molecule)
constant: B1 constant with N138T
B6: feline IgG1a S252V (antibody, part only; not given: Variable domains, not shown: another chain or arm of the molecule)
constant: B1 constant with N138V
B7: feline IgG1a S254A (antibody, part only; not given: Variable domains, not shown: another chain or arm of the molecule)
constant: B1 constant with N138S, S140A
B8: feline IgG1a S254D (antibody, part only; not given: Variable domains, not shown: another chain or arm of the molecule)
constant: B1 constant with N138S, S140D
B9: feline IgG1a S434I (antibody, part only; not given: Variable domains, not shown: another chain or arm of the molecule)
constant: B1 constant with N138S, S322I
B10: feline IgG1a S254E (antibody, part only; not given: Variable domains, not shown: another chain or arm of the molecule)
constant: B1 constant with N138S, S140E
B11: feline IgG1a S254F (antibody, part only; not given: Variable domains, not shown: another chain or arm of the molecule)
constant: B1 constant with N138S, S140F
B12: feline IgG1a S254G (antibody, part only; not given: Variable domains, not shown: another chain or arm of the molecule)
constant: B1 constant with N138S, S140G
B13: feline IgG1a S254H (antibody, part only; not given: Variable domains, not shown: another chain or arm of the molecule)
constant: B1 constant with N138S, S140H
B14: feline IgG1a S254K (antibody, part only; not given: Variable domains, not shown: another chain or arm of the molecule)
constant: B1 constant with N138S, S140K
B15: feline IgG1a S254L (antibody, part only; not given: variable domains and light chain, not shown: another chain or arm of the molecule)
constant: B1 constant with N138S, S140L
B16: feline IgG1a S254M (antibody, part only; not given: Variable domains, not shown: another chain or arm of the molecule)
constant: B1 constant with N138S, S140M
B17: feline IgG1a S428A (antibody, part only; not given: Variable domains, not shown: another chain or arm of the molecule)
constant: B1 constant with N138S, S316A
B18: feline IgG1a S428C (antibody, part only; not given: Variable domains, not shown: another chain or arm of the molecule)
constant: B1 constant with N138S, S316C
B19: feline IgG1a S428D (antibody, part only; not given: Variable domains, not shown: another chain or arm of the molecule)
constant: B1 constant with N138S, S316D
B20: feline IgG1a S434K (antibody, part only; not given: variable domains and light chain, not shown: another chain or arm of the molecule)
constant: B1 constant with N138S, S322K
B21: feline IgG1a S428E (antibody, part only; not given: Variable domains, not shown: another chain or arm of the molecule)
constant: B1 constant with N138S, S316E
B22: feline IgG1a S428F (antibody, part only; not given: Variable domains, not shown: another chain or arm of the molecule)
constant: B1 constant with N138S, S316F
B23: feline IgG1a S428G (antibody, part only; not given: Variable domains, not shown: another chain or arm of the molecule)
constant: B1 constant with N138S, S316G

Biological target: feline FcRn complex (FcRn-α subunit and β-microglobulin), biotin labeled (feline)
Assay: SPR, pH 6

Binder	Kd [nM]
B1	400
B2	1.02
B3	7030
B4	192
B5	1190
B6	4470
B7	53
B8	474
B9	14.4
B10	0.711
B11	568
B12	64.2
B13	1850
B14	46.5
B15	42.7
B16	101
B17	119
B18	61.4
B19	362
B20	6.76
B21	184
B22	83.9
B23	46.3
